Reference: patent publication US20090208496A1 (BIOTEST, published 2009)

Biological target: T1, soluble CD4 (human, UniProt P01730 26-396)
T1 construct: extracellular domain
Test: competitive ELISA against biotinylated mB-F5 on coated soluble CD4, 37 C 2 hours
Experimental: Culture supernatants of transfectomas producing the four versions of hB-F5 were collected, and concentrated. The different antibodies were purified from culture supernatants by affinity chromatography using protein A Sepharose and assessed for their CD4 binding activity by measuring, by means of competitive ELISA, their inhibitory activities against the binding of biotinylated mB-F5 to soluble CD4 coated on microtiter plates. Incubation time is 2 hours for 37 C and overnight for 4 C.

| Relative binding activity (% of mB-F5) | Binder |
| --- | --- |
| 30 % of mB-F5 | humanized B-F5 version H37L/L4L (antibody, V domains shown, also called hB-F5; H37L/L4L IgG1) VH: EEQLVESGGGLVKPGGSLRLSCAASGFSFSDCRMYWLRQAPGKGLEWIGVISVKSENYGANYAESVRGRFTISRDDSKNTVYLQMNSLKTEDTAVYYCSASYYRYDVGAWFAYWGQGTLVTVSS VL: DIVLTQSPDSLAVSLGERATINCRASKSVSTSGYSYIYWYQQKPGQPPKLLIYLASILESGVPDRFSGSGSGTDFTLTISSLQAEDVAVYYCQHSRELPWTFGQGTKVEIK |
| 10 % of mB-F5 | humanized B-F5 version H37V/L4M (antibody, V domains shown, also called hB-F5) VH: EEQLVESGGGLVKPGGSLRLSCAASGFSFSDCRMYWVRQAPGKGLEWIGVISVKSENYGANYAESVRGRFTISRDDSKNTVYLQMNSLKTEDTAVYYCSASYYRYDVGAWFAYWGQGTLVTVSS VL: DIVMTQSPDSLAVSLGERATINCRASKSVSTSGYSYIYWYQQKPGQPPKLLIYLASILESGVPDRFSGSGSGTDFTLTISSLQAEDVAVYYCQHSRELPWTFGQGTKVEIK |
| 30 % of mB-F5 | humanized B-F5 version H37L/L4M (antibody, IgG1, V domains shown, also called hB-F5; H37L/L4M IgG1) VH: EEQLVESGGGLVKPGGSLRLSCAASGFSFSDCRMYWLRQAPGKGLEWIGVISVKSENYGANYAESVRGRFTISRDDSKNTVYLQMNSLKTEDTAVYYCSASYYRYDVGAWFAYWGQGTLVTVSS VL: DIVMTQSPDSLAVSLGERATINCRASKSVSTSGYSYIYWYQQKPGQPPKLLIYLASILESGVPDRFSGSGSGTDFTLTISSLQAEDVAVYYCQHSRELPWTFGQGTKVEIK |
| 10 % of mB-F5 | humanized B-F5 version H37V/L4L (antibody, V domains shown, also called hB-F5) VH: EEQLVESGGGLVKPGGSLRLSCAASGFSFSDCRMYWVRQAPGKGLEWIGVISVKSENYGANYAESVRGRFTISRDDSKNTVYLQMNSLKTEDTAVYYCSASYYRYDVGAWFAYWGQGTLVTVSS VL: DIVLTQSPDSLAVSLGERATINCRASKSVSTSGYSYIYWYQQKPGQPPKLLIYLASILESGVPDRFSGSGSGTDFTLTISSLQAEDVAVYYCQHSRELPWTFGQGTKVEIK |
